Laboratory results reported in patent US20200024330A1.

Experiments:
Assay in all cases: cell-based or functional assay
[1] = target: HIV-1 Env of isolate MGRM-G-027 (subtype G) (HIV-1)
[2] = target: HIV-1 Env of isolate MG RM-D-014 (subtype D) (HIV-1)
[3] = target: HIV-1 Env of isolate MGRM-F1-016 (HIV-1)
[4] = target: HIV-1 Env of isolate MG RM-D-013 (subtype D) (HIV-1)
[5] = target: HIV-1 JR-CSF Env V182A (HIV-1 (isolate JR-CSF)) (UniProt P20871)
[6] = target: HIV-1 Env of isolate MGRM-C-001 (pseudovirus) (HIV-1 isolate MGRM-C-001, subtype C)
[7] = target: HIV-1 Env of isolate MGRM-F1-015 (HIV-1)
[8] = target: HIV-1 Env of isolate MG RM-D-001 (subtype D) (HIV-1)
[9] = target: HIV-1 Env of isolate 98IN022 (pseudovirus) (HIV-1 isolate 98IN022, subtype C)
[10] = target: HIV-1 JR-CSF Env K168A (HIV-1 (isolate JR-CSF)) (UniProt P20871)
[11] = target: HIV-1 Env of isolate MG RM-D-005 (subtype D) (HIV-1)
[12] = target: HIV-1 MGRM-Chronic-B-020 Env (pseudovirus) (HIV-1)
[13] = target: HIV-1 Env of isolate MGRM-C-028 (pseudovirus) (HIV-1 isolate MGRM-C-028, subtype C)
[14] = target: HIV-1 Env of isolate JRCSF (HIV-1) (UniProt P20871)
[15] = target: HIV-1 Env of isolate MGRM-Chronic-B-001 (HIV-1)
[16] = target: HIV-1 Env of isolate MGRM-D-012 (HIV-1)
[17] = target: HIV-1 Env of isolate SF162 (HIV-1) (UniProt P19550)
[18] = target: HIV-1 Env of isolate MGRM-D-013 (HIV-1)
[19] = target: HIV-1 Env of isolate 92UG114 (HIV-1)
[20] = target: HIV-1 Env of isolate 92UG024 (HIV-1)
[21] = target: HIV-1 Env of isolate MGRM-D-002 (HIV-1)
[22] = target: HIV-1 Env of isolate 92WR021 (HIV-1)
[23] = target: HIV-1 Env of isolate 94KE105 (subtype AC), on pseudovirus (HIV-1)
[24] = target: HIV-1 Env of isolate 92BR020 (pseudovirus) (HIV-1 isolate 92BR020, subtype B)
[25] = target: HIV-1 Env of isolate 6535.3 (pseudovirus) (HIV-1 isolate 6535.3, subtype B)
[26] = target: HIV-1 Env of isolate MGRM-F1-021 (subtype F), on pseudovirus (HIV-1)
[27] = target: HIV-1 Env of isolate MGRM-C-012 (HIV-1)
[28] = target: HIV-1 Env of isolate 93WR029 (HIV-1)
[29] = target: HIV-1 Env of isolate MGRM-AE-003 (CRF01_AE), on pseudovirus (HIV-1)
[30] = target: HIV-1 Env of pseudovirus 93TH305, clade B (HIV-1)
[31] = target: HIV-1 Env of isolate MGRM-D-020 (clade D) (HIV-1)
[32] = target: HIV-1 MGRM-C-012 Env (HIV-1)
[33] = target: HIV-1 Env of pseudovirus TRJ0.58 (Acute), clade B (HIV-1)
[34] = target: HIV-1 Env of isolate MGRM-G-011 (clade G pseudovirus) (HIV-1)
[35] = target: HIV-1 98CN009 envelope glycoprotein (Env) on pseudovirus (HIV-1)
[36] = target: HIV-1 Env of isolate MGRM-D-024 (clade D) (HIV-1)
[37] = target: HIV-1 MGRM-C-015 Env (HIV-1)
[38] = target: HIV-1 92RW026 envelope glycoprotein (Env) (HIV-1)
[39] = target: HIV-1 93IN905 Env (HIV-1)
[40] = target: HIV-1 98IN022 envelope glycoprotein (Env) on pseudovirus (HIV-1)
[41] = target: HIV-1 92UG031 envelope glycoprotein (Env) (HIV-1)
[42] = target: HIV-1 94KE105 envelope glycoprotein (Env) (HIV-1)

PGT-143 (4980_N08) (antibody) showed a neutralization IC50 [1] greater than 50 µg/mL.

5145_B14 (PGT-127) (antibody) gave an IC50 (µg/mL), pseudovirus neutralization [2] of 0.393 µg/mL, an IC50 [3] greater than 50 µg/mL and an IC50 (µg/mL), pseudovirus neutralization [4] greater than 50 µg/mL. It also gave a Fold IC50 increase relative to wild-type [5] of 1.6 fold, an IC50 (µg/mL) neutralization [6] greater than 50 µg/mL and an IC50 [7] greater than 50 µg/mL. The IC50 (µg/mL), pseudovirus neutralization [8] was 2.23 µg/mL, the IC50 (µg/mL) neutralization [9] was 19.2 µg/mL and the Fold IC50 increase relative to wild-type [10] was 1.9 fold. The IC50 (µg/mL), pseudovirus neutralization [11] was 6.02 µg/mL, the IC50, pseudovirus neutralization [12] was 0.05 µg/mL and the IC50 (µg/mL) neutralization [13] was 7.57 µg/mL.

VRC01 (antibody) gave an IC50, pseudovirus neutralization [3] of 0.517 µg/mL, a neutralization IC50 [14] of 0.164 µg/mL and an IC50, pseudovirus neutralization [7] of 0.387 µg/mL. It also gave an IC50 [15] of 0.066 µg/mL, an IC50, pseudovirus neutralization [16] of 0.216 µg/mL and a neutralization IC50 [17] of 0.421 µg/mL. The neutralization IC50 [1] was 0.36 µg/mL and the IC50, pseudovirus neutralization [18] was 0.087 µg/mL.

PGV04 (antibody) was tested, and the IC50 (µg/mL), pseudovirus neutralization [3] was 0.268 µg/mL, the IC50 (µg/mL), pseudovirus neutralization [19] was 0.461 µg/mL and the IC50 (µg/mL), pseudovirus neutralization [7] was 0.179 µg/mL. The IC50 (µg/mL), pseudovirus neutralization [16] was 0.125 µg/mL, the IC50 (µg/mL), pseudovirus neutralization [20] was 0.201 µg/mL and the neutralization IC50 [1] was 0.125 µg/mL. It also gave an IC50 (µg/mL), pseudovirus neutralization [18] of 0.088 µg/mL and an IC50 (µg/mL), pseudovirus neutralization [21] of 0.322 µg/mL.

In the case of 5114_A19 (PGT-128) (antibody), the IC50 [14] is reported as 0.003 µg/mL, the neutralization IC50 [22] is reported as 5 ng/mL and the IC50, single-round pseudovirus neutralization [23] is reported as 7 ng/mL. It also gave an IC50 (µg/mL) neutralization [24] of 0.009 µg/mL, a Fold IC50 increase relative to wild-type [5] of 1.2 fold and an IC50 [19] of 0.083 µg/mL. For the same substance, the IC50 (µg/mL) neutralization [25] was 0.011 µg/mL, the IC50 [15] was greater than 50 µg/mL and the IC50 [16] was greater than 50 µg/mL. For the same substance, the IC50, pseudovirus neutralization [26] was greater than 50 µg/mL, the IC50 [27] was 0.058 µg/mL and the Fold IC50 increase relative to wild-type [10] was 1.1 fold. For the same substance, the IC50 [20] was greater than 50 µg/mL, the IC50 [17] was 0.007 µg/mL and the neutralization IC50 [28] was greater than 50 µg/mL. The IC50 [18] was 8.85 µg/mL, the IC50 [21] was 0.011 µg/mL and the IC50, single-round pseudovirus neutralization [29] was 0.18 µg/mL.

Work on 5136_H01 (PGT-131) (antibody) yielded an IC50 [14] of 0.029 µg/mL, a neutralization IC50 [22] of 12 ng/mL and an IC50, single-round pseudovirus neutralization [23] of 13 ng/mL. The IC50 (µg/mL) neutralization [24] was 6.16 µg/mL, the Fold IC50 increase relative to wild-type [5] was 1.1 fold and the IC50 [19] was greater than 50 µg/mL. For the same substance, the IC50 (µg/mL) neutralization [25] was 0.056 µg/mL, the IC50 [15] was greater than 50 µg/mL and the IC50 [16] was greater than 50 µg/mL. It also gave an IC50, pseudovirus neutralization [26] greater than 50 µg/mL, an IC50 [27] greater than 50 µg/mL and a Fold IC50 increase relative to wild-type [10] of 1.7 fold. For the same substance, the IC50 [20] was greater than 50 µg/mL, the IC50 [17] was 0.025 µg/mL and the neutralization IC50 [28] was greater than 50 µg/mL. It also gave an IC50 [18] of 4.14 µg/mL, an IC50 [21] of 11.2 µg/mL and an IC50, single-round pseudovirus neutralization [29] of 1.41 µg/mL.

PGT-144 (4970_K22) (antibody) gave a neutralization IC50 [1] greater than 50 µg/mL.

1496_C09 (PG9) (TCN-109) (antibody) showed an IC50 (µg/ml), pseudovirus neutralization [30] of 2.08 µg/mL, an IC50 (µg/ml), pseudovirus neutralization [31] of 2.03 µg/mL and an IC50 (µg/mL), pseudovirus neutralization [3] of 0.518 µg/mL. For the same substance, the IC50 [32] was 0.24 µg/mL, the IC50 (µg/mL), pseudovirus neutralization [19] was 40.6 µg/mL and the IC50 (µg/ml), pseudovirus neutralization [33] was 0.43 µg/mL. The IC50 (µg/mL), pseudovirus neutralization [16] was 16.2 µg/mL, the IC50 (µg/ml), pseudovirus neutralization [34] was 0.19 µg/mL and the IC50 (µg/ml), pseudovirus neutralization [35] was 1.07 µg/mL. For the same substance, the IC50 (µg/ml), pseudovirus neutralization [36] was 0.03 µg/mL, the IC50 (µg/mL), pseudovirus neutralization [20] was 1.86 µg/mL and the IC50 [37] was 0.5 µg/mL. It also gave an IC50 (µg/ml), pseudovirus neutralization [38] of 0.27 µg/mL, an IC50 [39] of 0.03 µg/mL and a neutralization IC50 [1] of 0.007 µg/mL. It also gave an IC50 (µg/ml), pseudovirus neutralization [40] of 0.006 µg/mL, an IC50 (µg/ml), pseudovirus neutralization [41] of 3.08 µg/mL and an IC50 (µg/mL), pseudovirus neutralization [18] of 0.021 µg/mL. It also gave an IC50 (µg/ml), pseudovirus neutralization [42] of 29.6 µg/mL and an IC50 (µg/mL), pseudovirus neutralization [21] of 0.021 µg/mL.

In the case of 4858_P08 (PGT-123) (antibody), the IC50 (µg/mL), pseudovirus neutralization [2] is reported as 0.009 µg/mL, the IC50 [3] is reported as 4.95 µg/mL and the IC50 (µg/mL), pseudovirus neutralization [4] is reported as greater than 50 µg/mL. It also gave a Fold IC50 increase relative to wild-type [5] of 2.8 fold, an IC50 (µg/mL) neutralization [6] of 42.4 µg/mL and an IC50 [7] greater than 50 µg/mL. The IC50 (µg/mL), pseudovirus neutralization [8] was 0.147 µg/mL, the IC50 (µg/mL) neutralization [9] was 0.011 µg/mL and the Fold IC50 increase relative to wild-type [10] was 0.8 fold. The IC50 (µg/mL), pseudovirus neutralization [11] was greater than 50 µg/mL, the IC50, pseudovirus neutralization [12] was 0.005 µg/mL and the IC50 (µg/mL) neutralization [13] was 0.402 µg/mL.
